Assay results as given in the supplement of paper PMC6379048.

How the values were obtained:
Experiment in all cases: Kd (EC50 corrected by depletion factor)
[1] = biological target: MRPL50 (UniProt Q8N5N7)
Summary of the method: (§1)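 HEK293-FT lysate (2.5 mg protein/well) was treated with free RNA oligos (0 nM to 30 μM) for 1 h at 4°C, then with the same oligos on NHS-Sepharose beads for 30 min at 4°C. Bound proteins were quantified by label-free LC-MS/MS relative to the control. EC50 came from a four-parameter log-logistic fit, and Kd is EC50 times a protein-dependent depletion factor.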

[2] = biological target: PCBP2 (UniProt Q15366)
Sequence of PCBP2 (Q15366 whole entry): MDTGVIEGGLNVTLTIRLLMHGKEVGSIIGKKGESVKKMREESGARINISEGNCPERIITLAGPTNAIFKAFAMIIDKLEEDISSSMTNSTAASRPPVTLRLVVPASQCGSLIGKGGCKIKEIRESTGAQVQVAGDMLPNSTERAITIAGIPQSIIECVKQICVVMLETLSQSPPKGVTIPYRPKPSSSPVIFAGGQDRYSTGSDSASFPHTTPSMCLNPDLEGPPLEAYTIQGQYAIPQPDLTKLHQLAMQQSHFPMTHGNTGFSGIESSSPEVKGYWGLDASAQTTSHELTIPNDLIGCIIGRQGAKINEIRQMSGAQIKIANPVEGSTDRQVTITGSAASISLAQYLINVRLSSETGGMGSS
Summary of the method: as §1

[3] = biological target: RPS10 (UniProt P46783)
Summary of the method: as §1

[4] = biological target: GPATCH11 (UniProt Q8N954)
Sequence of GPATCH11 (Q8N954 whole entry): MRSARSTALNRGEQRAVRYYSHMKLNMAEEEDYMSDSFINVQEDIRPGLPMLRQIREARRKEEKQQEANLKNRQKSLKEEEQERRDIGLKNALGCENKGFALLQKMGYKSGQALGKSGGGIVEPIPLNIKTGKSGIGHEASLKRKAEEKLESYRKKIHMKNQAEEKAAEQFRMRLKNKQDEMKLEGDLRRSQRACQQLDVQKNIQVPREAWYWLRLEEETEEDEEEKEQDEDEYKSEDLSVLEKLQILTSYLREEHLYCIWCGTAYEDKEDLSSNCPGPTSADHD
Summary of the method: as §1

**Q.** What does the source list for CUGUCCU?
**A.** Kd [1]: 149 nM; Kd [2]: 1240 nM; Kd [3]: 116 nM

**Q.** For AAUAAA, which Kd [4] is on record?
**A.** 32.5 nM
